Source: patent US20090291895A1 (published 2009)

How the values were obtained:
[1] = target: T1, purified recombinant MPV vCCI (monkeypox virus viral CC-chemokine inhibitor, product of MPV ORF-[cha (monkeypox virus, UniProt P0DTM9 17-246)); assay: mobility shift assay
[2] = target: T1, purified recombinant MPV vCCI …; assay: native PAGE mobility shift (1:1 molar ratio); co-immunoprecipitation

B1: mouse MCP-1 (ligand)
chain: not shown
B1: binds [1].

B2: purified recombinant 6x-histidine tagged rhesus MIP-1alpha (ligand)
chain: ADTPTSCCFSYISRQIPQNFIADYFETNSQCSKPGVIFLTKRGRQVCADPSKEWVQKYVSDLELSAHHHHHH
notes: also called rhMIP-1α; rhMIP1α
B2: binds [2].

B3: mouse MIP-1alpha (ligand)
chain: APYGADTPTACCFSYSRKIPRQFIVDYFETSSLCSQPGVIFLTKRNRQICADSKETWVQEYITDLELNA
B3: binds [1].
